For 1 substance, percent co-depleted, percent destabilized in 0.5 M urea and percent remaining bound through 4 M urea results are on record in paper PMC9606253.

Test [1] deals with SS18 (mouse (endogenous in mouse brain)) (UniProt Q62280). In words: co-IP; three successive immunodepletions of E17.5 Brwd1^FLAG-HA brain nuclear extract with antibodies to SMARCA4, SS18 or SS18L1 or IgG; signal left in the final flow-through by blot densitometry, normalised to IgG.
Test [2] addresses SS18L1 (mouse (endogenous in mouse brain)) (UniProt Q8BW22). In words: co-IP; three successive immunodepletions of adult Brwd1^FLAG-HA brain nuclear extract with antibodies to SMARCA4 or SS18L1 or IgG; signal left in the final flow-through by blot densitometry, normalised to IgG.
Test [3] addresses SMARCA4 (mouse (endogenous in mouse brain)) (UniProt Q3TKT4). The description is as above.
For test [4] the target is unchanged. The test can be described thus: co-IP; brain nuclear extract partially denatured with 0, 0.25, 0.5, 1, 2 or 4 M urea (15 min, room temperature), dialysed, then IP with anti-SMARCA4 (BRG1 H-10) or mouse IgG; bound protein normalised to immunoprecipitated SMARCA4 (n = 3).

Sequence of BRWD1-FLAG-HA, Q921C3 1-2304 (natural protein) (Q921C3 whole entry): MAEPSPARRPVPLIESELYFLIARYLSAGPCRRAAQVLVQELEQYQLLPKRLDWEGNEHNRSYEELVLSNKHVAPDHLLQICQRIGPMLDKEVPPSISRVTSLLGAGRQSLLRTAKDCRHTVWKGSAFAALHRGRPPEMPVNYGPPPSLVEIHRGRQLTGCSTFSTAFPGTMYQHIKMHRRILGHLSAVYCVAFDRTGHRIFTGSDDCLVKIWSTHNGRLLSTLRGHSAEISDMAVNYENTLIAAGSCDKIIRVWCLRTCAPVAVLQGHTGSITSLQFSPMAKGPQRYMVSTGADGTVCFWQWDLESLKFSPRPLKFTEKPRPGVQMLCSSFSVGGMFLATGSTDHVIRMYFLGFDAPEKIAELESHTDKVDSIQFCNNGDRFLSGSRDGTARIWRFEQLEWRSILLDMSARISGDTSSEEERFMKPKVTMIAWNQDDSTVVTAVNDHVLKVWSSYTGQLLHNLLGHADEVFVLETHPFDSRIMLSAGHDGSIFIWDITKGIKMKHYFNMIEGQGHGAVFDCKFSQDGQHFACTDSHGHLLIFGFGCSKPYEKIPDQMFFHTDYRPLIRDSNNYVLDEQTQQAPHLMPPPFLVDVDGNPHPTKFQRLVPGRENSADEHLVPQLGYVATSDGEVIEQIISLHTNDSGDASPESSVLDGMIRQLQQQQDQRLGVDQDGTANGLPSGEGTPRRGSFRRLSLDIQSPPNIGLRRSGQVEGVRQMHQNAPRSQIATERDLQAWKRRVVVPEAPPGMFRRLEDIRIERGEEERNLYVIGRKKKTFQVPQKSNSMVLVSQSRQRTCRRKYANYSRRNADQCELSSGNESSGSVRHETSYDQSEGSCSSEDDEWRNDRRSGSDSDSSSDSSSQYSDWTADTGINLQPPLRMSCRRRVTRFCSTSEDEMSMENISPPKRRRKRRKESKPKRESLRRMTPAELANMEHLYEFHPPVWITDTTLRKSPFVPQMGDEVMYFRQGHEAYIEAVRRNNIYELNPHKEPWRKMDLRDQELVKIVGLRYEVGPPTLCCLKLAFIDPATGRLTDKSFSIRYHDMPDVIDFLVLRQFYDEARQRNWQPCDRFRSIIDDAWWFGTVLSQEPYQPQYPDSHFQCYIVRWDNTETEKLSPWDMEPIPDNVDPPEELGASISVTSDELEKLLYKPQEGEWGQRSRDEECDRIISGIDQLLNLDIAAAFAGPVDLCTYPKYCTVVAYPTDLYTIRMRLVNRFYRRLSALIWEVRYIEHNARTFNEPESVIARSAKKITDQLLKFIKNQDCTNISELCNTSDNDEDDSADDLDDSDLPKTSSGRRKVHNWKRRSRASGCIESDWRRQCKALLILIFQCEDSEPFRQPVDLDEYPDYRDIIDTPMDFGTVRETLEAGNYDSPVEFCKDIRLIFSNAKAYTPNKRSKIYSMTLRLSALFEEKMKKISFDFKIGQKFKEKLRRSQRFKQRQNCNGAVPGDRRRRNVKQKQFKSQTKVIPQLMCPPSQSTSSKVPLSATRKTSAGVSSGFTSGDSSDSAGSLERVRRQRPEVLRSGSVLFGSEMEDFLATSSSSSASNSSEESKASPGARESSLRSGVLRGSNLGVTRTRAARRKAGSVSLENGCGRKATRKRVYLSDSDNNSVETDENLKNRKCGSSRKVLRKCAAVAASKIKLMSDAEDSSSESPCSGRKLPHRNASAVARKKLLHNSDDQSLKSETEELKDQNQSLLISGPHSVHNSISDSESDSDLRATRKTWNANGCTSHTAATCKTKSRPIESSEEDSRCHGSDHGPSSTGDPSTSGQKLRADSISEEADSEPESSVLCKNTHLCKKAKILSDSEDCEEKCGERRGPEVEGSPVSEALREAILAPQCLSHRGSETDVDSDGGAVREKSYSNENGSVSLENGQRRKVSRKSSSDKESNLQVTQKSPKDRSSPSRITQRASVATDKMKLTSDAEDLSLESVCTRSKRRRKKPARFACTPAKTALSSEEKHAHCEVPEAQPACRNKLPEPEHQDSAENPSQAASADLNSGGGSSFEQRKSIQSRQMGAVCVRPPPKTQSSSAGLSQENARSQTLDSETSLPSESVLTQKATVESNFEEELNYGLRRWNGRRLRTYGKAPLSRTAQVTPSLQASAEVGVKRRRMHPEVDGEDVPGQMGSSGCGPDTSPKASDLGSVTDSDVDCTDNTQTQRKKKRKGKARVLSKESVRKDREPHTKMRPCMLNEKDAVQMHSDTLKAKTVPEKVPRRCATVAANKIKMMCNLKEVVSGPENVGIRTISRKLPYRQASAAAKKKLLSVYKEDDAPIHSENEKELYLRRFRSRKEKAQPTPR
Sequence of SMARCA4 (mouse (endogenous in mouse brain)) (Q3TKT4 whole entry): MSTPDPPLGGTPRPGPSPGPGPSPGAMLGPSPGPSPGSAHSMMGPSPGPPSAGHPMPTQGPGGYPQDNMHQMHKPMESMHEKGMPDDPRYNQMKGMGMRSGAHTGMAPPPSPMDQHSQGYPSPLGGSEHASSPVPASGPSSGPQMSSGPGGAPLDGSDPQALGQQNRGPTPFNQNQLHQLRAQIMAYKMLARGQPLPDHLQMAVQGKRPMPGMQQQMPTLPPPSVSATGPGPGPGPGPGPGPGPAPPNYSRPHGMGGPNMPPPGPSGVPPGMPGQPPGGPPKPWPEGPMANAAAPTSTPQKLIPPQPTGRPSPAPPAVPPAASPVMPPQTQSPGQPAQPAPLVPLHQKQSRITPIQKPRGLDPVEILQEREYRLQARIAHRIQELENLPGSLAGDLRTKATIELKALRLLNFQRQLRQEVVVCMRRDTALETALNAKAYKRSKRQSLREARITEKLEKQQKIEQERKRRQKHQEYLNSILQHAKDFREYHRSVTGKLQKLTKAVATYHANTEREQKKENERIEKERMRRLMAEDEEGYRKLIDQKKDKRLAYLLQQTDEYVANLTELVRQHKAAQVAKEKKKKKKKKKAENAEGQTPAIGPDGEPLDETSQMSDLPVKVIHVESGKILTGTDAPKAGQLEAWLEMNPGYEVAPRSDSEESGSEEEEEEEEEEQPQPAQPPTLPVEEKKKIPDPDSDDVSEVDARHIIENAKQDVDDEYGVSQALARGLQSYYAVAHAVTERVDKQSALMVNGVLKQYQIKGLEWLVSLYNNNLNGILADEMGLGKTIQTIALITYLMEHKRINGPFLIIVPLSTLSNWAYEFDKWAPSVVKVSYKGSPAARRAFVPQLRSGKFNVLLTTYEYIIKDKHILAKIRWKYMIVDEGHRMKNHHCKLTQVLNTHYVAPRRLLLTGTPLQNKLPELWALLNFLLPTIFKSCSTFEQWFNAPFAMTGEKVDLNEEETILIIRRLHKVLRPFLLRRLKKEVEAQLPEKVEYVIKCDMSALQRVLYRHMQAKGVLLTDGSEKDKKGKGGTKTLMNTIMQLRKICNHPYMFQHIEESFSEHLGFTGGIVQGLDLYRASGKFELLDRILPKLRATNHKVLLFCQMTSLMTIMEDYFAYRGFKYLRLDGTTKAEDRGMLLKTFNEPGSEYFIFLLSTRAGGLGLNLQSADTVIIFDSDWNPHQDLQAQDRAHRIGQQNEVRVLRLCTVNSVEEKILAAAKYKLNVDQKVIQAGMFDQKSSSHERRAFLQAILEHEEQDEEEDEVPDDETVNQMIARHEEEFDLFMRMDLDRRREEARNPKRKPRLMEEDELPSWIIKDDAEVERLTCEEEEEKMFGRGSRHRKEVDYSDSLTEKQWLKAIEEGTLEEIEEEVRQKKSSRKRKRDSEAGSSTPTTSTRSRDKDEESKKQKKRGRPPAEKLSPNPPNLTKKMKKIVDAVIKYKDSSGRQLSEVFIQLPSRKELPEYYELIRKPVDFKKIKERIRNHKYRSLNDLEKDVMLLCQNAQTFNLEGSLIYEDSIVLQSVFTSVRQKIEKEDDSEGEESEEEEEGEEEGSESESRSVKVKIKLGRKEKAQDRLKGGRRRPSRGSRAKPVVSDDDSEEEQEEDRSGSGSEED
Sequence of SS18 (mouse (endogenous in mouse brain)) (Q62280 whole entry): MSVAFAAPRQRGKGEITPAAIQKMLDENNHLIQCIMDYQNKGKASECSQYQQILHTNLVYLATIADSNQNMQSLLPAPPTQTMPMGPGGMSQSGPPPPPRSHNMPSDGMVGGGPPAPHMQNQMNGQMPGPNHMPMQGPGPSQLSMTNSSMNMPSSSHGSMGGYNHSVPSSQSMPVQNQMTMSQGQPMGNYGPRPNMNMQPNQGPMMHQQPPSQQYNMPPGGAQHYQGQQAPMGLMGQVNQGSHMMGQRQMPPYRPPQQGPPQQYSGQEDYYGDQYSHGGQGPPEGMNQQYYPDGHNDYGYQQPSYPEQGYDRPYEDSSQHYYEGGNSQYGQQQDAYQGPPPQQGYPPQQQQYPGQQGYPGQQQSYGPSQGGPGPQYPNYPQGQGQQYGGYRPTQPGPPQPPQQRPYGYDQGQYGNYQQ
Sequence of SS18L1 (mouse (endogenous in mouse brain)) (Q8BW22 whole entry): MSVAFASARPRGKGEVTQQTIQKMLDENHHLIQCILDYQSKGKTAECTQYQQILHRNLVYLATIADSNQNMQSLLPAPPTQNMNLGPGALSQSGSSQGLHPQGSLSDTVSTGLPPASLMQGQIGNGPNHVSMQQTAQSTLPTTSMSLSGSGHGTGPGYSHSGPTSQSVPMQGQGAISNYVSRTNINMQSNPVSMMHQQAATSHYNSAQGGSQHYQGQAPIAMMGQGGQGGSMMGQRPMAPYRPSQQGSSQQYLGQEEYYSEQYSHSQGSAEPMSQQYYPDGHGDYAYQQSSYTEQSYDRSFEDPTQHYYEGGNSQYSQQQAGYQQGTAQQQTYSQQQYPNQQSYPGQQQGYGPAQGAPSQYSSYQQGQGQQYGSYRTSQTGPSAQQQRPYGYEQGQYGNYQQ

As to “BRWD1-FLAG-HA, Q921C3 1-2304 (natural protein)”, the percent co-depleted in test [1], in test [2] and in test [3] was 20% in each case. This substance also came in with a percent destabilized in 0.5 M urea in test [4] of 60%. Besides, the percent remaining bound through 4 M urea in test [4] worked out at 40%.
